The target in one experiment is YFP-Stim1 (human) (UniProt Q13586). The experiment in a line: FRET or BRET. On the technique in general: Bioluminescence resonance energy transfer reports proximity on the nanometre scale.
For the next experiment, the target named is CFP-Stim1 (human) (UniProt Q13586). In words: FRET or BRET.

Turning to “CFP-Orai3-L292S (from UniProt Q9BRQ5 1-295) (natural protein)”, the FRET reduction against WT-Orai3 with Stim1 with YFP-Stim1 (human) is 20%.
In the case of “YFP-Orai3-L285S (from UniProt Q9BRQ5 1-295) (natural protein)”, the FRET reduction against WT-Orai3 with Stim1 with CFP-Stim1 (human) was 35%.

Source of the values: article PMC3048740.
